± gives the standard deviation.
Assay: protein stability index of a GFP-peptide fusion (GPS, HEK-293T) (PSI 1-6); higher = more stable
[1] = treatment: DMSO, c terminus: a fixed tail appended
[2] = treatment: MLN4924 1 uM, 8 h, c terminus: a fixed tail appended
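Further: 24-mer peptide tiles fused after GFP, lentivirally expressed, FACS-sorted into six equal bins by GFP/DsRed ratio, decoded by Illumina sequencing, PSI is the read-weighted mean bin number.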

| Sequence | protein stability index [1] | protein stability index [2] | protein stability index (treatment: DMSO, c terminus: native) | protein stability index (treatment: MLN4924 1 uM, 8 h, c terminus: native) |
| --- | --- | --- | --- | --- |
| PQHVSSDKEVRAASTEADKRLSRF [NLN] | 5.3 ± 0.18 | 5.1 ± 0.22 |  |  |
| PRALIFSTDDFFFREDGAYEFNPD [N4BP2L1] | 2.95 ± 0.41 | 3.66 ± 0.48 |  |  |
| PSDPLVSIGALISKAHLEKVRSYV [ALDH8A1] | 2.05 ± 0.079 | 2.12 ± 0.13 |  |  |
| PSEEYGKILEVVGRYSVHNAGISF [MLH1] | 2.32 ± 0.36 |  |  |  |
| PSGEEEAKVGPGLPDGCQPLQLLR [CBY2] | 4.75 ± 0.22 | 4.79 ± 0.27 |  |  |
| PSGNNGSVNWRTGSFHGPGHISLR [DLC1] | 3.09 ± 0.18 | 3.01 ± 0.19 |  |  |
| PSHGEVGEHKDRIERQWGNLLGEG [ZSCAN9] | 4.47 ± 0.19 | 4.47 ± 0.36 |  |  |
| PSNSSSLTLSGIKEDNSLLNQGFL [MYBL2] | 3.57 ± 0.35 | 3.81 ± 0.45 |  |  |
| PSSNNKELFYRVNYIGTKNVIETC [NSDHL] | 2.7 ± 0.2 | 2.55 ± 0.18 |  |  |
| PTLDAPGGRALVVRKVPPGYSIKV [SMAD6] | 2.83 ± 0.17 | 3.17 ± 0.19 |  |  |
| PTQEEWRQVVDILWSDPMAQEGCK [PPEF2] | 3.96 ± 0.39 | 4.21 ± 0.079 |  |  |
| PVRCAGDWLPRGLGWGGRGAAVCA [ALG2] | 2.57 ± 0.36 | 2.25 ± 0.27 |  |  |
| PVRPVSRGCLHSHGLQEGKDLFTQ [CDC25A] | 3.15 ± 0.33 | 3.21 ± 0.13 |  |  |
| PVVKKKGVKRKADTTTPTTSAITA [BRD3] | 5.03 ± 0.29 | 5.01 ± 0.19 |  |  |
| QAEFTAMRDQYMRAGEGFIICYSI [RIT1] | 3.38 ± 0.48 | 3.04 ± 0.8 |  |  |
| QALQAKASLTIPLVPETEDDRKLA [YJU2B] | 5.16 ± 0.24 | 5.24 ± 0.11 |  |  |
| QAQIDQYLGLVRTHINAVVAKIQA [RTN1] | 2.08 ± 0.35 | 2.35 ± 0.28 |  |  |
| QCMQPNNIMGIENICELAARMLFS [NR2F2] | 2.45 ± 0.68 | 2.49 ± 0.36 |  |  |
| QDLDSRLRAGSSEFDSEHNLTSNE [RASAL3] | 5.52 ± 0.29 | 5.42 ± 0.19 |  |  |
| QEAKLLHWNGRHKPWDFPSVHNDL [GLT8D2] | 3.11 ± 0.19 | 2.9 ± 0.28 |  |  |
| QELLDTVLVNLVPAHKNLNKQAYD [PDS5B] | 2.95 ± 0.34 | 3.02 ± 0.3 |  |  |
| QETAKEEDGSVELESQVQKDGVAD [C18orf25] | 5.55 ± 0.24 | 5.61 ± 0.34 |  |  |
| QFHKQIAVMRGQILNLTQALKDNK [PI4K2A] | 2.5 ± 0.36 | 2.8 ± 0.35 |  |  |

| Sequence | protein stability index [1] | protein stability index [2] | protein stability index (treatment: DMSO, c terminus: native) | protein stability index (treatment: MLN4924 1 uM, 8 h, c terminus: native) |
| --- | --- | --- | --- | --- |
| QGQPVVNRPLSLKDQQTFARSVGL [TRADD] | 3.67 ± 0.35 | 3.9 ± 0.12 |  |  |
| QGYVSDIRRFLSAFHEPQVGLIQA [DFFB] | 2.15 ± 0.47 | 2.38 ± 0.17 |  |  |
| QILPVLDFCKVFLISGVTLDNCVE [KLHL13] | 3.21 ± 0.41 | 2.49 ± 0.064 |  |  |
| QIVLLKSSAIEVIMLRSNESFTMD [VDR] | 2.6 ± 0.7 | 2.44 ± 0.4 |  |  |
| QKLIVNLKPEKSYSFVLTNRGNSA [PTPRD] | 2.58 ± 0.36 | 2.58 ± 0.13 |  |  |
| QKPLCASDGRTFLSRCEFQRAKCK [SMOC2] | 3.14 ± 0.52 | 3.6 ± 0.88 |  |  |
| QLDIEEEGRPGAATFHVGGGPAQN [TFE3] | 5.26 ± 0.31 | 5.16 ± 0.32 |  |  |
| QLKAVHEQLAALSQAPVNKPKKKK [BRD3] | 4.51 ± 0.44 | 4.6 ± 0.19 |  |  |
| QLLARRMQVDKKRVYLATDDPSLL [FUT8] | 2.61 ± 0.23 | 2.92 ± 0.27 |  |  |
| QLPIDRGGGEGKAMYIDTEGTFRP [RAD51] | 4.16 ± 0.15 | 4.05 ± 0.24 |  |  |
| QLRATAGSLILPPGPGGTMKRHSS [FCHO1] | 3.87 ± 0.16 | 3.91 ± 0.33 |  |  |
| QLYTAYILENRPPGSLLCTVAASD [PCDHGC5] | 2.11 ± 0.24 | 2.18 ± 0.26 |  |  |
| QNLCKGLSQPTTNLVAGCLQLNAR [NEUROD6] | 2.97 ± 0.2 | 3.15 ± 0.23 |  |  |
| QNLNDRLASYLEKVRALEEANADL [KRT13] | 4.13 ± 0.17 | 3.98 ± 0.39 |  |  |
| QNPTASYYNVVLLRYQFSRPGPQS [FCHO1] | 2.44 ± 0.46 | 2.41 ± 0.27 |  |  |
| QPPAITQVHRQGERRRELVRSQTL [SMTNL2] | 4.19 ± 0.39 | 4.57 ± 0.33 |  |  |
| QPPDMASALTDRTSRAPSTYTYTS [RSPH3] | 4.39 ± 0.17 | 4.51 ± 0.15 |  |  |
| QPSFPEILLESHMVMIRGNSGLKP [POMT2] | 2.79 ± 0.3 | 3.07 ± 0.21 |  |  |
| QRDSKCKVKWTHEEDEQLRALVRQ [MYBL2] | 4.25 ± 0.33 | 4.02 ± 0.24 |  |  |
| QRGALPAPDPELAAEMYQRGRAVL [RSAD1] | 4.36 ± 0.18 | 4.38 ± 0.17 |  |  |
| QRSHMGKLKEPQPQDHKPGLGAS |  |  | 3.13 ± 0.88 | 3.63 ± 0.56 |
| QSQSLRDRARRFEEALRKNTEEQL [MTUS2] | 4.88 ± 0.28 | 5.06 ± 0.18 |  |  |
| QTTYLEDRPMFMLQCAMEENCLSA [LOXL2] | 2.38 ± 0.59 | 2.33 ± 0.43 |  |  |

| Sequence | protein stability index [1] | protein stability index [2] | protein stability index (treatment: DMSO, c terminus: native) | protein stability index (treatment: MLN4924 1 uM, 8 h, c terminus: native) |
| --- | --- | --- | --- | --- |
| QVENWSAFAPDFKELDENVEYEER [RBBP5] | 5.05 ± 0.36 | 5.15 ± 0.48 |  |  |
| QVTMRGLLSCLSKSNNRLKSLSIQ [FBXO39] | 2.21 ± 0.11 | 2.07 ± 0.21 |  |  |
| QYEKYSFRGFPPEDLMPLAAAYGH [P3H4] | 3.01 ± 0.4 | 2.55 ± 0.57 |  |  |
| QYFVVDPMAEYNMPQYILREFKVT [PTPRD] | 2.48 ± 0.56 | 2.15 ± 0.16 |  |  |
| RAALICLTLVLVASVLLQAVLYPR [CD207] | 2.44 ± 0.55 | 2.59 ± 0.53 |  |  |
| RADCASESACSSDSLDEARSSGSE [PWWP2B] | 5.42 ± 0.3 | 5.53 ± 0.26 |  |  |
| RAKDFLPADIQAQFAISRELIRNI [SNX8] | 2.38 ± 0.18 | 2.48 ± 0.24 |  |  |
| RAKVKTDDIARIYQPKRYALSPKT [FAM98B] | 3.4 ± 0.26 | 3.5 ± 0.13 |  |  |
| RASALCDRHTKFFEEPEDPSNRSF [PPP2R2B] | 4.38 ± 0.19 | 4.49 ± 0.25 |  |  |
| RASYSDGKLKAPPKPCAGNQGTQI [MLH1] | 4.05 ± 0.53 | 4.17 ± 0.14 |  |  |
| RCINDPYLEVLETMDNKKGRRYEA [CLCN6] | 3.82 ± 0.15 | 4.03 ± 0.32 |  |  |
| RDEAIYECVASNNVGEISVSTRLT [PTPRD] | 4.03 ± 0.34 | 3.91 ± 0.23 |  |  |
| RDPSLRPARTVLVGSLSWLRKQLQ | 2.75 ± 0.51 | 3.19 ± 0.48 |  |  |
| RDRLRSRLEALSTERDEIEDVKCQ [TRIM15] | 5.32 ± 0.15 | 5.44 ± 0.35 |  |  |
| REGDCAPEEKIWEELSVLEVFEGR [MAGEA3] | 5.08 ± 0.22 | 5.14 ± 0.11 |  |  |
| REITGVQAQPGEATSGPPGIQPGQ [PALM] | 5.37 ± 0.26 | 5.23 ± 0.2 |  |  |
| REKQLSHSLRAVSTDPPHHDHHDE [BEX1] | 5.37 ± 0.4 | 5.382 ± 0.051 |  |  |
| REQGPREQEPELSFLKQKEQLEAE [PBXIP1] | 5.5 ± 0.35 | 5.58 ± 0.33 |  |  |
| RERAVEWRERAVEKRERALEEVER [ZBED2] | 4.9 ± 0.71 | 5.08 ± 0.29 |  |  |
| REVAKELGLPYYETSVFDQFGIKD [RHOBTB1] | 3.18 ± 0.44 | 3.27 ± 0.29 |  |  |
| RFIIIFEQIRFVMKAHSFVRENVP [SOAT1] | 2.51 ± 0.39 | 2.65 ± 0.56 |  |  |
| RFIRERDRAVNDYPSLYYPEMYIL [CDC25B] | 2.49 ± 0.53 | 1.91 ± 0.29 |  |  |
| RFQDPAAASISDGDCDAREEKQRE [FAM219A] | 5.5 ± 0.4 | 5.46 ± 0.32 |  |  |

| Sequence | protein stability index [1] | protein stability index [2] | protein stability index (treatment: DMSO, c terminus: native) | protein stability index (treatment: MLN4924 1 uM, 8 h, c terminus: native) |
| --- | --- | --- | --- | --- |
| RGENLEHLRNKTEDLEATSEHFKT [VAMP8] | 5.43 ± 0.35 | 5.29 ± 0.12 |  |  |
| RGIAIVSVLVILISIVIFCLETLP [KCNA4] | 2.29 ± 0.17 | 2.26 ± 0.33 |  |  |
| RGRPRKLSKEYWDCLEGKKSKHAP [ELF3] | 4.18 ± 0.27 | 4.19 ± 0.47 |  |  |
| RHVAPIPSHYDVQDRFRIELSEEG [MOSPD3] | 4.34 ± 0.4 | 4.69 ± 0.21 |  |  |
| RKFSRLSCLRRRRHPPKVGDDSDL [SMG5] | 4.08 ± 0.17 | 3.96 ± 0.28 |  |  |
| RKLQKEQQRSKDLESRQRSLEQAN [TFE3] | 5.09 ± 0.3 | 5.11 ± 0.27 |  |  |
| RKVLQAVHRGDGANPFQAYLDVDL [RTN2] | 3.21 ± 0.26 | 3.26 ± 0.19 |  |  |
| RLAADDFRTKFETEQALRLSVEAD [KRT17] | 4.8 ± 0.3 | 4.66 ± 0.15 |  |  |
| RLAQGNPQQGFFSSFFTCNQKCQL [ATP23] | 2.49 ± 0.45 | 2.53 ± 0.23 |  |  |
| RLAQPSSPEVLTPQLSPGSGTPQA [RTN2] | 5.12 ± 0.12 | 4.96 ± 0.2 |  |  |
| RLPWAGQLTKELPLSPAFFGEDGI [PBXIP1] | 3.43 ± 0.44 | 3.49 ± 0.28 |  |  |
| RLVLPIAYEFNPELVLVSAGFDAA [HDAC6] | 2.3 ± 0.57 | 2.4 ± 0.2 |  |  |
| RLWGIRKNRPAMNYDKLSRSIRQY [SPDEF] | 2.4 ± 0.25 | 2.4 ± 0.45 |  |  |
| RMPDEDSKIDHYVLEYRRTNFEGP [FSD1] | 3.78 ± 0.19 | 3.79 ± 0.14 |  |  |
| RNGLHLPEQVQNEIKSMKKRMSEL [NLN] | 4.11 ± 0.33 | 4.4 ± 0.31 |  |  |
| RNRGRFSSTTGLFYSAEIICAIEY [PRKX] | 2.92 ± 0.47 | 2.91 ± 0.71 |  |  |
| RPDGDCASSLNGGNIKGIEGHSPG [ZC2HC1A] | 5.16 ± 0.18 | 5.02 ± 0.31 |  |  |
| RPLCAQGDWHSPTLIREKSFGACL [ELOA2] | 2.53 ± 0.19 | 2.6 ± 0.21 |  |  |
| RPMHHEDFKEDLKKFRTKSRTWAG [CDC25A] | 3.31 ± 0.22 | 3.61 ± 0.36 |  |  |
| RPSTYYELLGVHPGASTEEVKRAF [DNAJC4] | 3.48 ± 0.21 | 3.86 ± 0.23 |  |  |

From the supplement of paper PMC10567573
